Marks after values point to notes of the source that are not given here.
Experiments:
Type in all cases: in vivo, human
patients = assay: Adverse event incidence with previous LV dosing regimen 2.5 mg/kg Q3W; details: n = 65
[1] = Drug to antibody ratio (DAR) of ADC in blood samples after LV administration, Q3W; details: Q3W dosing
Method: In order to investigate pharmacokinetics of ADC species with different DARs under the previous tri-weekly dosing scheme (Q3W) versus a weekly dosing scheme (Q1W), LV was administered to subjects accordingly, and the pharmacokinetics of ADC species with different DARs were simulated.
Breast cancer patients were treated with ladiratuzumab vedotin (LV).
LV was administered by 30 minute intravenous (IV) infusion under a Q3W interval.
Following administration of LV, subject blood samples were collected at pre-dose, end of infusion, 2 hrs, 4 hrs, 8 hrs, 1 day, 3 days, 7 days, and 14 days after administration. The concentrations of the antibody-drug conjugate (ADC) was measured, and the drug to antibody ratio (DAR) of each species (DAR8, DAR7, DAR6, DARS, DAR4, DAR3, DAR2, DAR1 and DAR0) of the ADCs collected in blood samples was also analyzed. […] Using computer-assisted modeling, where decrease in average DAR was established previously, i.e. from 4 (on Day 0) to 1 (on Day 7) under Q3W, the pharmacokinetics were simulated for (i) ADCs with DARs≥4, or (ii) ADCs with DAR of between 2 and 3 (FIGS. 3B, C respectively) when LV was administered at a dose of 1 mg/kg on Day 1 of each 7-day cycle (Q1W) or at a dose of 3 mg/kg on Day 1 of each 21-day cycle (Q3W). […]

[2] = Observed pharmacokinetics of ADC and MMAE after LV Q1W or Q3W dosing
Method: To investigate if fractionated dosing could increase treatment efficacy or reduce the number and severity of adverse events, various fractionated dosing schemes of ladiratuzumab vedotin (LV) were tested to measure for changes in Cmax, Ctrough, and AUC at similar total dose intensities and exposure.
Breast cancer patients were treated with (LV).
LV was administered as 30-minute IV infusion at the indicated interval. […]

[3] = MMAE, LV 1.0 mg/kg weekly (obs.), n = 4, geometric mean (CV %)
[4] = MMAE, LV 2.5 mg/kg q3wk (obs.), geometric mean (CV %)

ladiratuzumab vedotin [LV]
Adverse event incidence: Abdominal Pain (patients): 18 (28%)
Adverse event incidence: Alopecia (patients): 22 (34%)
Adverse event incidence: Constipation (patients): 32 (49%)
Adverse event incidence: Decreased Appetite (patients): 29 (45%)
Adverse event incidence: Diarrhea (patients): 23 (35%)
Adverse event incidence: Fatigue (patients): 38 (59%)
Adverse event incidence: Hypokalemia (patients): 17 (26%)
Adverse event incidence: Nausea (patients): 32 (49%)
Adverse event incidence: Neutropenia (patients): 19 (29%)
Adverse event incidence: Peripheral Sensory Neuropathy (patients): 21 (32%)
Adverse event incidence: Vomiting (patients): 14 (22%)
DAR of ADCs in blood ([1]; Day 0): about 4
DAR of ADCs in blood ([1]; Day 7): about 1
AUC0-21 ([2]; ADC, 1.0 mg/kg weekly (obs.), n = 4, estimated from observed AUC0-7 d of Cycle 1 Dose #1 and Dose #3): 215.4* μg*day/mL
Cmax ([2]; ADC, 1.0 mg/kg weekly (obs.), n = 4, geo. mean (CV %)): 31.4 (25) μg/mL
Ctrough ([2]; ADC, 1.25 mg/kg weekly (obs.), n = 1): 7.64 µg/mL
AUC0-21 ([2]; ADC, 1.25 mg/kg weekly (obs.), n = 5, estimated from observed AUC0-7 d of Cycle 1 Dose #1 and Dose #3): 266.9* μg*day/mL
Cmax ([2]; ADC, 1.25 mg/kg weekly (obs.), n = 5, geo. mean (CV %)): 43.3 (31) μg/mL
AUC0-21 ([2]; ADC, 2.5 mg/kg q3wk (obs.), n = 97, geo. mean (CV %)): 210 (27) μg*day/mL
Cmax ([2]; ADC, 2.5 mg/kg q3wk (obs.), n = 131, geo. mean (CV %)): 85 (27) μg/mL
AUC0-21 ([2]; MMAE, LV 1.0 mg/kg weekly (obs.), n = 4, estimated from observed AUC0-7 d of Cycle 1 Dose #1 and Dose #3): 29.7* μg*day/mL
Cmax [2, 3]: 2.1 (61) μg/mL
Ctrough [2, 3]: 1.26(75) μg/mL
Ctrough ([2]; MMAE, LV 1.25 mg/kg weekly (obs.), n = 2, geometric mean (CV %)): 2.95(160) μg/mL
AUC0-21 ([2]; MMAE, LV 1.25 mg/kg weekly (obs.), n = 5, estimated from observed AUC0-7 d of Cycle 1 Dose #1 and Dose #3): 53.6* μg*day/mL
Cmax ([2]; MMAE, LV 1.25 mg/kg weekly (obs.), n = 5, geometric mean (CV %)): 3.74 (68) μg/mL
AUC0-21 [2, 4]: 50.3 (61) μg*day/mL
Cmax [2, 4]: 5.55 (56) μg/mL
Ctrough [2, 4]: 0.34 (80) μg/mL

Source: patent US20210030885A1, “HUMANIZED ANTI-LIV1 ANTIBODIES FOR THE TREATMENT OF CANCER” (priority 2019, published 2021)
